Reference: patent US20220372155A1 (LYVGEN BIOPHARMA, published 2022)

B1: Ly805 (bispecific antibody, human IgG1, kappa)
heavy: QVQLQQPGAELVKPGASVKLSCKASGYTFTSYWMHWVKQRPGQGLEWIGMIHPNSGGTNYNEKFKGKGTLTVDKSSSTAYMQLSSLTSDDSAVYYCVTSQATWFAYWGQGTLVTVSAASTKGPSVFPLAPSSKSTSGGTAALGCLVKDYFPEPVTVSWNSGALTSGVHTFPAVLQSSGLYSLSSVVTVPSSSLGTQTYICNVNHKPSNTKVDKKVEPKSCDKTHTCPPCPAPELLGPSVFLFPPKPKDTLMISRTPEVTCVVVDVSHEDPEVKFNWYVDGVEVHNAKTKPREEQYNSTYRVVSVLTVLHQDWLNGKEYKCKVSNKALPAPIEKTISKAKGQPREPQVYTLPPSREEMTKNQVSLTCLVKGFYPSDIAVEWESNGQPENNYKTTPPVLDSDGSFFLYSKLTVDKSRWQQGNVFSCSVMHEALHNHYTQKSLSLSPG
light: ENVLTQSPAIMSVSPGEKVTMTCRASSSVSSSYLHWYQQKSGASPKFWIYSTSNLASGVPARFSGSGSGTSYSLTISSVEAEDAATYYCQHYSGYPLTFGAGTKLELRRTVAAPSVFIFPPSDEQLKSGTASVVCLLNNFYPREAKVQWKVDNALQSGNSQESVTEQDSKDSTYSLSSTLTLSKADYEKHKVYACEVTHQGLSSPVTKSFNRGECGGGGSGGGGSGGGGSGGGGSDIQMTQSPSSLSASVGDRVTITCKASQNIYIYLNWYQQKPGKAPKLLIYNTNNLQTGVPSRFSGSGSGTDFTLTISSLQPEDFATYYCLQHSSRRTFGGGTKVEIKGGGGSGGGGSGGGGSGGGGSQVQLVESGGGLVQPGGSLKLSCATSGFNFNDYFMNWVRQASGKGLEWVGQIRNKNYNYATYYTESLEGRVTISRDDSKNTAYLQMNSLKTEDTAVYYCTSYYYDGFADYFDYWGQGTTVTVSS
notes: Ly387 HC (IgG1 mutated Fc) + Ly387 LC-TM740 scFv VL-VH
B2: Ly807 (bispecific antibody, human IgG1, kappa)
heavy: B1 heavy
light: ENVLTQSPAIMSVSPGEKVTMTCRASSSVSSSYLHWYQQKSGASPKFWIYSTSNLASGVPARFSGSGSGTSYSLTISSVEAEDAATYYCQHYSGYPLTFGAGTKLELRRTVAAPSVFIFPPSDEQLKSGTASVVCLLNNFYPREAKVQWKVDNALQSGNSQESVTEQDSKDSTYSLSSTLTLSKADYEKHKVYACEVTHQGLSSPVTKSFNRGECGGGGSGGGGSGGGGSGGGGSDIQMTQSPSSLSASVGDRVTITCLASEDISNDLAWYQQKPGKAPKLLIYFVDRLLDGVPSRFSGSGSGTDFTLTISSLQPEDFATYYCQQSYKYPPTFGQGTKLEIKGGGGSGGGGSGGGGSGGGGSEVQLVESGGGLVQPGGSLRLSCAASGFTFTNYGLHWVRQAPGKGLEWVSSISPSGGVTYYRDSVKGRFTISRDNSKNTLYLQMNSLRAEDTAVYYCAKPFLGWGGANWIAHWGQGTLVTVSS
notes: Ly387 HC (IgG1 mutated Fc) + Ly387 LC-TM559 scFv VL-VH
B3: Ly806 (bispecific antibody, human IgG1, kappa)
heavy: B1 heavy
light: ENVLTQSPAIMSVSPGEKVTMTCRASSSVSSSYLHWYQQKSGASPKFWIYSTSNLASGVPARFSGSGSGTSYSLTISSVEAEDAATYYCQHYSGYPLTFGAGTKLELRRTVAAPSVFIFPPSDEQLKSGTASVVCLLNNFYPREAKVQWKVDNALQSGNSQESVTEQDSKDSTYSLSSTLTLSKADYEKHKVYACEVTHQGLSSPVTKSFNRGECGGGGSGGGGSGGGGSGGGGSQVQLVESGGGLVQPGGSLKLSCATSGFNFNDYFMNWVRQASGKGLEWVGQIRNKNYNYATYYTESLEGRVTISRDDSKNTAYLQMNSLKTEDTAVYYCTSYYYDGFADYFDYWGQGTTVTVSSGGGGSGGGGSGGGGSGGGGSDIQMTQSPSSLSASVGDRVTITCKASQNIYIYLNWYQQKPGKAPKLLIYNTNNLQTGVPSRFSGSGSGTDFTLTISSLQPEDFATYYCLQHSSRRTFGGGTKVEIK
notes: Ly387 HC (IgG1 mutated Fc) + Ly387 LC-TM740 scFv VH-VL
B4: Ly815 (bispecific antibody, human IgG1, kappa)
heavy: B1 heavy
light: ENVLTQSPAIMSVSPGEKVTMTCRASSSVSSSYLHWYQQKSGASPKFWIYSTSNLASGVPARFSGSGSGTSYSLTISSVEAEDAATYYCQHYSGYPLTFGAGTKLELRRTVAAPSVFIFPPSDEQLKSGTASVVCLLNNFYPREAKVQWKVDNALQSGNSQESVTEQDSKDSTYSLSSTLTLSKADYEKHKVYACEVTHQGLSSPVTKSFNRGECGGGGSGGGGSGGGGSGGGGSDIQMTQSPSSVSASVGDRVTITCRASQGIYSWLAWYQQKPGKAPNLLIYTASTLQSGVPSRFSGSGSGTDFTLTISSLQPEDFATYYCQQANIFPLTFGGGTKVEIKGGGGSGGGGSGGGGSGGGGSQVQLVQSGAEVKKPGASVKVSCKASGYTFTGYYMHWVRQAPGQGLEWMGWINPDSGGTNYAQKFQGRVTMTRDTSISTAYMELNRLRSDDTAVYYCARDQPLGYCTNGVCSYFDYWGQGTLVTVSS
notes: Ly387 HC (IgG1 mutated Fc) + Ly387 LC-Ly253 scFv VL-VH
B5: Ly816 (bispecific antibody, human IgG1, kappa)
heavy: B1 heavy
light: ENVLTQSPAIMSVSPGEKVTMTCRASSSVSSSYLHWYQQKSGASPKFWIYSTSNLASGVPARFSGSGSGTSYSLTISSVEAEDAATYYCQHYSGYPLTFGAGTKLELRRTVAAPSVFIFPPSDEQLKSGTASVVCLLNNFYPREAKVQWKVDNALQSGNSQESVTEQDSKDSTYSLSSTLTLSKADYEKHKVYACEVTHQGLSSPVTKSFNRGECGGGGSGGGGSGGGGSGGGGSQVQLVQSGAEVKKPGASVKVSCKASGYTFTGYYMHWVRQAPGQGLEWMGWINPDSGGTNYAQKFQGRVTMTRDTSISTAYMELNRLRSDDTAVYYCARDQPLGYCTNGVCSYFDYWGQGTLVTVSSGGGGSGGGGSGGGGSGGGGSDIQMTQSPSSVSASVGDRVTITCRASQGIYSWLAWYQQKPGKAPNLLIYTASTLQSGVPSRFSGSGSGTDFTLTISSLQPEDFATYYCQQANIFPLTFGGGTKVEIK
notes: Ly387 HC (IgG1 mutated Fc) + Ly387 LC-Ly253 scFv VH-VL
B6: Ly808 (bispecific antibody, human IgG1, kappa)
heavy: B1 heavy
light: ENVLTQSPAIMSVSPGEKVTMTCRASSSVSSSYLHWYQQKSGASPKFWIYSTSNLASGVPARFSGSGSGTSYSLTISSVEAEDAATYYCQHYSGYPLTFGAGTKLELRRTVAAPSVFIFPPSDEQLKSGTASVVCLLNNFYPREAKVQWKVDNALQSGNSQESVTEQDSKDSTYSLSSTLTLSKADYEKHKVYACEVTHQGLSSPVTKSFNRGECGGGGSGGGGSGGGGSGGGGSEVQLVESGGGLVQPGGSLRLSCAASGFTFTNYGLHWVRQAPGKGLEWVSSISPSGGVTYYRDSVKGRFTISRDNSKNTLYLQMNSLRAEDTAVYYCAKPFLGWGGANWIAHWGQGTLVTVSSGGGGSGGGGSGGGGSGGGGSDIQMTQSPSSLSASVGDRVTITCLASEDISNDLAWYQQKPGKAPKLLIYFVDRLLDGVPSRFSGSGSGTDFTLTISSLQPEDFATYYCQQSYKYPPTFGQGTKLEIK
notes: Ly387 HC (IgG1 mutated Fc) + Ly387 LC-TM559 scFv VH-VL
B7: Ly809 (bispecific antibody, human IgG1, kappa)
heavy: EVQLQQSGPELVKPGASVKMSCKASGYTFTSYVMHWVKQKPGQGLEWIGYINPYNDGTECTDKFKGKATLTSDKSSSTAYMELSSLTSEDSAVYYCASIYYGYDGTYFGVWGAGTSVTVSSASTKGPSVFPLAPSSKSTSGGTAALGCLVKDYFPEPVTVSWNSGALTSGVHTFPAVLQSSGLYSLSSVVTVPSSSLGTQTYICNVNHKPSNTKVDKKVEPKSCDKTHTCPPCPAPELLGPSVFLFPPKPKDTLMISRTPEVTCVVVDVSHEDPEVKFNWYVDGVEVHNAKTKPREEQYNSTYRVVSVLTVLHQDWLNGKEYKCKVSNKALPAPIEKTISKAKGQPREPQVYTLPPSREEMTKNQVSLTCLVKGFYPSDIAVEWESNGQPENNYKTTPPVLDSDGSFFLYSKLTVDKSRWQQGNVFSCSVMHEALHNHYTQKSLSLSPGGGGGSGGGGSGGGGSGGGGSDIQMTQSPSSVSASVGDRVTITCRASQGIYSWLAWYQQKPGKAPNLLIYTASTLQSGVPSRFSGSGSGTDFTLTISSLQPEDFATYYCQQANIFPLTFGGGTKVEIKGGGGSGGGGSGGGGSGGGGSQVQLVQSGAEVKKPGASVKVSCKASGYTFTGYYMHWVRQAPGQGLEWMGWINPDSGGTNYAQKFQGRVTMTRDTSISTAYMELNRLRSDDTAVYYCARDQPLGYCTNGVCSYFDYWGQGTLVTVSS
light: QIVLSQSPAILSTSPGEKVTMTCRASSSVSYMHWYQQKPGSSPKPWIYATSNLASGVPARFSGSRSGTSYSLTISRVEAEDAATYYCQQWSSNTLTFGGGTKLELKRTVAAPSVFIFPPSDEQLKSGTASVVCLLNNFYPREAKVQWKVDNALQSGNSQESVTEQDSKDSTYSLSSTLTLSKADYEKHKVYACEVTHQGLSSPVTKSFNRGEC
notes: Ly383 HC (IgG1 mutated Fc)-Ly253 scFv VL-VH + Ly383 LC
B8: Ly810 (bispecific antibody, human IgG1, kappa)
heavy: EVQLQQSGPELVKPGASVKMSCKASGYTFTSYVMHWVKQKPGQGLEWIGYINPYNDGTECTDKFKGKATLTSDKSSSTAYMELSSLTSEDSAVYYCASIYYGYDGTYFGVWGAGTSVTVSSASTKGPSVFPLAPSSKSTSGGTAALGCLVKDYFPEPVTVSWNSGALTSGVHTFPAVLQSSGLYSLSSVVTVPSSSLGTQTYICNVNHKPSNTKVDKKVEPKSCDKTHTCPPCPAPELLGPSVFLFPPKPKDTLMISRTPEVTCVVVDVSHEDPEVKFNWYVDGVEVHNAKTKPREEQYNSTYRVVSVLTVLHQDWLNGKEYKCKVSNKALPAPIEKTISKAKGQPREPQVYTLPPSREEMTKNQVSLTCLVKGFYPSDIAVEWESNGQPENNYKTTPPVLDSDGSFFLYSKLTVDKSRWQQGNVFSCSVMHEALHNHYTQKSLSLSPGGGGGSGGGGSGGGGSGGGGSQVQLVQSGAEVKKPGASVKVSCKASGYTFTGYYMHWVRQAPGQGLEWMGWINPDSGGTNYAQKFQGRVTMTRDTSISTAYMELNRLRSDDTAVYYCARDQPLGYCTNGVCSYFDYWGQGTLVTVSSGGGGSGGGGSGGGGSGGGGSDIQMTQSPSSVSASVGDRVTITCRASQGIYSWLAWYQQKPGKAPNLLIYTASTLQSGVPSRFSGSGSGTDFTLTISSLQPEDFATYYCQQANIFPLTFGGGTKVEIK
light: B7 light
notes: Ly383 HC (IgG1 mutated Fc)-Ly253 scFv VH-VL + Ly383 LC
B9: Ly803 (bispecific antibody, human IgG1, kappa)
heavy: EVQLQQSGPELVKPGASVKMSCKASGYTFTSYVMHWVKQKPGQGLEWIGYINPYNDGTECTDKFKGKATLTSDKSSSTAYMELSSLTSEDSAVYYCASIYYGYDGTYFGVWGAGTSVTVSSASTKGPSVFPLAPSSKSTSGGTAALGCLVKDYFPEPVTVSWNSGALTSGVHTFPAVLQSSGLYSLSSVVTVPSSSLGTQTYICNVNHKPSNTKVDKKVEPKSCDKTHTCPPCPAPELLGPSVFLFPPKPKDTLMISRTPEVTCVVVDVSHEDPEVKFNWYVDGVEVHNAKTKPREEQYNSTYRVVSVLTVLHQDWLNGKEYKCKVSNKALPAPIEKTISKAKGQPREPQVYTLPPSREEMTKNQVSLTCLVKGFYPSDIAVEWESNGQPENNYKTTPPVLDSDGSFFLYSKLTVDKSRWQQGNVFSCSVMHEALHNHYTQKSLSLSPG
light: QIVLSQSPAILSTSPGEKVTMTCRASSSVSYMHWYQQKPGSSPKPWIYATSNLASGVPARFSGSRSGTSYSLTISRVEAEDAATYYCQQWSSNTLTFGGGTKLELKRTVAAPSVFIFPPSDEQLKSGTASVVCLLNNFYPREAKVQWKVDNALQSGNSQESVTEQDSKDSTYSLSSTLTLSKADYEKHKVYACEVTHQGLSSPVTKSFNRGECGGGGSGGGGSGGGGSGGGGSDIQMTQSPSSLSASVGDRVTITCLASEDISNDLAWYQQKPGKAPKLLIYFVDRLLDGVPSRFSGSGSGTDFTLTISSLQPEDFATYYCQQSYKYPPTFGQGTKLEIKGGGGSGGGGSGGGGSGGGGSEVQLVESGGGLVQPGGSLRLSCAASGFTFTNYGLHWVRQAPGKGLEWVSSISPSGGVTYYRDSVKGRFTISRDNSKNTLYLQMNSLRAEDTAVYYCAKPFLGWGGANWIAHWGQGTLVTVSS
notes: Ly383 HC (IgG1 mutated Fc) + Ly383 LC-TM559 scFv VL-VH
B10: Ly804 (bispecific antibody, human IgG1, kappa)
heavy: B9 heavy
light: QIVLSQSPAILSTSPGEKVTMTCRASSSVSYMHWYQQKPGSSPKPWIYATSNLASGVPARFSGSRSGTSYSLTISRVEAEDAATYYCQQWSSNTLTFGGGTKLELKRTVAAPSVFIFPPSDEQLKSGTASVVCLLNNFYPREAKVQWKVDNALQSGNSQESVTEQDSKDSTYSLSSTLTLSKADYEKHKVYACEVTHQGLSSPVTKSFNRGECGGGGSGGGGSGGGGSGGGGSEVQLVESGGGLVQPGGSLRLSCAASGFTFTNYGLHWVRQAPGKGLEWVSSISPSGGVTYYRDSVKGRFTISRDNSKNTLYLQMNSLRAEDTAVYYCAKPFLGWGGANWIAHWGQGTLVTVSSGGGGSGGGGSGGGGSGGGGSDIQMTQSPSSLSASVGDRVTITCLASEDISNDLAWYQQKPGKAPKLLIYFVDRLLDGVPSRFSGSGSGTDFTLTISSLQPEDFATYYCQQSYKYPPTFGQGTKLEIK
notes: Ly383 HC (IgG1 mutated Fc) + Ly383 LC-TM559 scFv VH-VL
B11: Ly813 (bispecific antibody, human IgG1, kappa)
heavy: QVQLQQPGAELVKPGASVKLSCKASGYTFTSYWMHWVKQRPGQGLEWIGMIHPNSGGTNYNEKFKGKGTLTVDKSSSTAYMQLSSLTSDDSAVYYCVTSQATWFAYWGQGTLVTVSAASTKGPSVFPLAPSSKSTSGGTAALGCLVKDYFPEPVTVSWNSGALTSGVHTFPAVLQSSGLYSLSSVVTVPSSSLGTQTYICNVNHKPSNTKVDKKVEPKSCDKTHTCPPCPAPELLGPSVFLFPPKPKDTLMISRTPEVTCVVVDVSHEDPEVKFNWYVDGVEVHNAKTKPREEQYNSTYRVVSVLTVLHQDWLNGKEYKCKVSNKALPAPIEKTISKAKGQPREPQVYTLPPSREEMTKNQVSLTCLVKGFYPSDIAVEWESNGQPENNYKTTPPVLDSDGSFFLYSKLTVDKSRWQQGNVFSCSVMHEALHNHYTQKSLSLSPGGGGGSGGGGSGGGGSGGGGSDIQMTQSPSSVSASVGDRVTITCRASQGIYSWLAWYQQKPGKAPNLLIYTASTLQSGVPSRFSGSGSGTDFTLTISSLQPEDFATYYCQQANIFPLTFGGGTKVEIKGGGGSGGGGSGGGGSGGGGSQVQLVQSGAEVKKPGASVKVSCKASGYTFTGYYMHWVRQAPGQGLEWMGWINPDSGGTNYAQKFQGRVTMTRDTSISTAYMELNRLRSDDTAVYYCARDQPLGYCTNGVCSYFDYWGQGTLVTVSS
light: ENVLTQSPAIMSVSPGEKVTMTCRASSSVSSSYLHWYQQKSGASPKFWIYSTSNLASGVPARFSGSGSGTSYSLTISSVEAEDAATYYCQHYSGYPLTFGAGTKLELRRTVAAPSVFIFPPSDEQLKSGTASVVCLLNNFYPREAKVQWKVDNALQSGNSQESVTEQDSKDSTYSLSSTLTLSKADYEKHKVYACEVTHQGLSSPVTKSFNRGEC
notes: Ly387 HC (IgG1 mutated Fc)-Ly253 scFv VL-VH + Ly387 LC
B12: Ly814 (bispecific antibody, human IgG1, kappa)
heavy: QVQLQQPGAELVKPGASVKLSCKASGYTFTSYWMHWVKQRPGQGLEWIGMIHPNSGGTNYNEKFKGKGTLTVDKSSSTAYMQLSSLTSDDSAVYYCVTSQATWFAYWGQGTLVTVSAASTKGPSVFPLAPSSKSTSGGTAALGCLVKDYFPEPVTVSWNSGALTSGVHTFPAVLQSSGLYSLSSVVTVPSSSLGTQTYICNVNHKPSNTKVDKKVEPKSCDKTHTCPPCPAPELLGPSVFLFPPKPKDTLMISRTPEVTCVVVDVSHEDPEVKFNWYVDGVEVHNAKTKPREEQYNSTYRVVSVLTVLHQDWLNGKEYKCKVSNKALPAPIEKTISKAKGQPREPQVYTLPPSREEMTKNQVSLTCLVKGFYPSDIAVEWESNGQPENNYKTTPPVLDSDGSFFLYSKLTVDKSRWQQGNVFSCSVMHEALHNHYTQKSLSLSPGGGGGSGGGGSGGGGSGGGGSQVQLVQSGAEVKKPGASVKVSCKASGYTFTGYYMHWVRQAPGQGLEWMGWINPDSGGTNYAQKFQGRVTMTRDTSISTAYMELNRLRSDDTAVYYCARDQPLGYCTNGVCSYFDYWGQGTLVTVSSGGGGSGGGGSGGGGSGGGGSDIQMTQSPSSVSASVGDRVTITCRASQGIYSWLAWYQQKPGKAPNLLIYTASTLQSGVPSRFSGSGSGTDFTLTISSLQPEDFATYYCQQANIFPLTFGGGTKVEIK
light: B11 light
notes: Ly387 HC-Ly253 scFv VH-VL + Ly387 LC
B13: Ly622 (bispecific antibody, human IgG1, kappa)
heavy: EVQLVESGGGLVQPGGSLRLSCAASGFTFTDYTMDWVRQAPGKGLEWVADVNPNSGGSIYNQRFKGRFTLSVDRSKNTLYLQMNSLRAEDTAVYYCARNLGPSFYFDYWGQGTLVTVSSASTKGPSVFPLAPSSKSTSGGTAALGCLVKDYFPEPVTVSWNSGALTSGVHTFPAVLQSSGLYSLSSVVTVPSSSLGTQTYICNVNHKPSNTKVDKKVEPKSCDKTHTCPPCPAPELLGPSVFLFPPKPKDTLMISRTPEVTCVVVDVSHEDPEVKFNWYVDGVEVHNAKTKPREEQYNSTYRVVSVLTVLHQDWLNGKEYKCKVSNKALPAPIEKTISKAKGQPREPQVYTLPPSREEMTKNQVSLTCLVKGFYPSDIAVEWESNGQPENNYKTTPPVLDSDGSFFLYSKLTVDKSRWQQGNVFSCSVMHEALHNHYTQKSLSLSPGGGGGSGGGGSGGGGSGGGGSDIQMTQSPSSLSASVGDRVTITCKASQNIYIYLNWYQQKPGKAPKLLIYNTNNLQTGVPSRFSGSGSGTDFTLTISSLQPEDFATYYCLQHSSRRTFGGGTKVEIKGGGGSGGGGSGGGGSGGGGSQVQLVESGGGLVQPGGSLKLSCATSGFNFNDYFMNWVRQASGKGLEWVGQIRNKNYNYATYYTESLEGRVTISRDDSKNTAYLQMNSLKTEDTAVYYCTSYYYDGFADYFDYWGQGTTVTVSS
light: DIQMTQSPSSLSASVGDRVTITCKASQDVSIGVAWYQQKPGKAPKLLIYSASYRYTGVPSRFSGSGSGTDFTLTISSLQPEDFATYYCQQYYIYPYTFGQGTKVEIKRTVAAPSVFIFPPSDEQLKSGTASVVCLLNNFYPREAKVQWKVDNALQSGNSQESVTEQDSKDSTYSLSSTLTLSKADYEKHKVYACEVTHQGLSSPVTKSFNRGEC
notes: Ly591 HC (IgG1 mutated Fc)-TM740 scFv VL-VH + Ly591 LC

What follows are binders tested against T1, human CD40 expressed on CHO cells (human, UniProt P25942 21-277) (assay: FACS, CHO cells).
T1 construct: whole, on cells; also used for the reporter cells over-expressing human CD40; also called cellular CD40; CHO-CD40 cells
T1 sequence (P25942 21-277): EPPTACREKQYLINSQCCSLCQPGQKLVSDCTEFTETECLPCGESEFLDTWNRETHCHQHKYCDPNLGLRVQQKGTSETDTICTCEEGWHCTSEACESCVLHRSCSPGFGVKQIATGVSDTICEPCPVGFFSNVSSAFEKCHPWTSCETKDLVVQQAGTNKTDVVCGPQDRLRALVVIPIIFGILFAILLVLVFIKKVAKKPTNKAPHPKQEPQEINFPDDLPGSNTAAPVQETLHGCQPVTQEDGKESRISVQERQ

Binding result, binds:
B1
B2
B3
B4
B5
B6
B7
B8
B9
B10
B11
B12
B13
